US11629364B2, “Methods for synthesizing anticoagulant polysaccharides” (OPTIMVIA, LLC, priority 2019, dated 2023)

B1: SEQ ID NO: 39: mutant of N-sulfotransferase domain of pig NDST carrying the SEQ ID NO: 10 mutations (protein)
chain: MSEEKDPLWQDPCEDKRHKDIWSKEKTCDRFPKLLIIGPHKTGVHALYLFLGLHPDLSSNYPSSETGNHIGFFGGHNYHKGIDWYMDFFPIPSNTTSDFYFEKSAWYFDSDVAPRRAAALLPKAKVLTILINPADRAYSWYQHQRAHDDPAALRYTFHEVITAGPDASLKLRALQNRCLVPGWYATHLERWLGAFHANQILVLDGKLLRTEPARVMDTVQKFLGVTNTIDYHKTLAFDPKKGFWCQLLEGGKTKCLGRSVGRKYPDMDPDSRAFLRDYYRDHNIELSKLLYKMGQTLPTWLREELQNTR
modifications: Amino acid sequence encoding for engineered arylsulfate-dependent N-sulfotransferase variant 13
B2: SEQ ID NO: 36: mutant of N-sulfotransferase domain of pig NDST carrying the SEQ ID NO: 4 mutations (protein)
chain: MSEEKDPLWQDPCEDKRHKDIWSKEKTCDRFPKLLIIGPSKTGAFLLTHFLGLHPDLSSNYPSSETGHSIQFFNGHNYHKGIDWYMDFFPIPSNTTSDFYFETSSNYFDSDVAPRRAAALLPKAKVLTILINPADRAYSWYQHQRAHDDPAALRYTFHEVITAGPDASLKLRALQNRCLVPGWYATHLERWLGAFHANQILVLDGKLLRTEPARVMDTVQKFLGVTNTIDYHKTLAFDPKKGFWCQLLEGGKTKCHGRRWGRKYPDMDPDSRAFLRDYYRDHNIELSKLLYKMGQTLPTWLREELQNTR
modifications: Amino acid sequence encoding for engineered arylsulfate-dependent N-sulfotransferase variant 10
B3: SEQ ID NO: 38: mutant of N-sulfotransferase domain of pig NDST carrying the SEQ ID NO: 8 mutations (protein)
chain: MSEEKDPLWQDPCEDKRHKDIWSKEKTCDRFPKLLIIGPHGTGGHALYLFLGLHPDLSSNYPSSETFLSIQFFNGHNYHKGIDWYMDFFPIPSNTTSDFYFEHSGNYFDSDVAPRRAAALLPKAKVLTILINPADRAYRAYVWQRAHDDPAALRYTFHEVITAGPDASLKLRALQNRCLVPGWYATHLERWLGAFHANQILVLDGKLLRTEPARVMDTVQKFLGVTNTIDYHKTLAFDPKKGFWCQLLEGGKTKCLGRSLGSKYPDMDPDSRAFLRDYYRDHNIELSKLLYKMGQTLPTWLREELQNTR
modifications: Amino acid sequence encoding for engineered arylsulfate-dependent N-sulfotransferase variant 12
B4: SEQ ID NO: 37: mutant of N-sulfotransferase domain of pig NDST carrying the SEQ ID NO: 6 mutations (protein)
chain: MSEEKDPLWQDPCEDKRHKDIWSKEKTCDRFPKLLIIGPHHTGGHALYLFLGLHPDLSSNYPSSETGEEIQFFNGHNYHKGIDWYMDFFPIPSNTTSDFYFEKSANYFDSDVAPRRAAALLPKAKVLTILINPADRAYSWYQAQRAHDDPAALRYTFHEVITAGPDASLKLRALQNRCLVPGWYATHLERWLGAFHANQILVLDGKLLRTEPARVMDTVQKFLGVTNTIDYHKTLAFDPKKGFWCQLLEGGKTKCGGRHLGRKYPDMDPDSRAFLRDYYRDHNIELSKLLYKMGQTLPTWLREELQNTR
modifications: Amino acid sequence encoding for engineered arylsulfate-dependent N-sulfotransferase variant 11

Assay: NST activity: N-sulfated products detected by SAX-HPLC after lyase digestion
Assay type: biochemical
Details: procedures of Example 2; expected
Method: A study was conducted in accordance with embodiments of the present disclosure to confirm NST activity of enzymes comprising the amino acid sequence of SEQ ID NO: 2, SEQ ID NO: 4, SEQ ID NO: 6, SEQ ID NO: 8, SEQ ID NO: 10, or SEQ ID NO: 12 by detecting the presence of N-sulfated polysaccharide products formed as a result of their sulfotransfer reaction, using mass spectrometry (MS). Each engineered enzyme was purified according to the procedure of Example 1. Sulfotransferase activity was monitored in 100 μL reactions containing 50 μM of enzyme. To each purified protein solution, 20 mg of an aryl sulfate compound (either PNS or NCS) was dissolved in 2 mL of reaction buffer (50 mM IVIES pH 7.0, 2 mM CaCl2)), added to the protein solution, and incubated at 37° C. for 10 min. 2.5 mL of 2 mg/mL solution of N-deacetylated heparosan was added to protein/donor solution and incubated overnight at 37° C. The N-deacetylated heparosan was synthesized according to the protocol described in Balagurunathan, K. et al (eds.) (2015), Glycosaminoglycans: Chemistry and Biology, Methods in Molecular Biology, vol. 1229, DOI 10.1007/978-1-4939-1714-3_2, ©Springer Science+Business Media, New York, pp. 11-19 (section 3.1). To purify the N-sulfated product, the incubated reaction mixture was centrifuged the following day at 5,000×g for 10 min. The filter was washed once with 2 mL water, and centrifuged again. The filtrate was added to a 1K MWCO Dialysis membrane, dialyzed for 2 days in Milli-Q water, with water changes at 1 h, 2 h, 8 h, 16 h, 32 h, and then lyophilized.
The lyophilized N-sulfated products from each reaction were subsequently digested with a mixture of three carbon-oxygen lyases comprising the amino acid sequences of SEQ ID NO: 30, SEQ ID NO: 31, and SEQ ID NO: 32, which catalyze the β-eliminative cleavage of heparosan-based polysaccharides. Such lyases are available from New England Biolabs, among other chemical and biological commercial entities. 1 μL of each lyase was incubated with 50 μg of the lyophilized sulfated polysaccharide product and the provided digestion buffer, and incubated over 24 hours according to the packaged instructions provided by New England Biolabs with each lyase. After digestion, the lyase enzymes were inactivated by heating to 100° C. for 5 minutes. Samples were centrifuged at 14,000 rpm for 30 minutes before introduction to a strong anion exchange, high performance liquid chromatography (SAX) analysis. SAX analysis was performed on a Dionex Ultimate 3000 LC system interface. Separation was carried out on a 4.6×250 mm Waters Spherisorb analytical column with 5.0 μm particle size at 45° C. Mobile phase solution A was 2.5 mM sodium phosphate, pH 3.5, while mobile phase solution B was 2.5 mM sodium phosphate, pH 3.5, and 1.2 M Sodium perchlorate. After each sample was loaded onto the column, mobile phase solutions were applied to the column at a ratio of 98% mobile phase solution A and 2% mobile phase solution B for five minutes at a flow rate of 1.4 mL/min. After five minutes, a linear gradient of increasing mobile phase solution B was applied until the ratio of mobile phase solution A to mobile phase solution B was 50:50.

| Molecule | NST activity: N-sulfated products by SAX |
| --- | --- |
| B1 | confirm the presence of N-sulfated polysaccharide products |
| B2 | confirm the presence of N-sulfated polysaccharide products |
| B3 | confirm the presence of N-sulfated polysaccharide products |
| B4 | confirm the presence of N-sulfated polysaccharide products |
